In patent publication US20240010721A1 (HARBOUR BIOMED SHANGHAI, published 2024):
Changes are numbered by the printed parent chain. Names may count otherwise.

B1: PR002562 (antibody, human IgG1, kappa, V domains shown)
VH: QVQLVQSGGGVVQPGRSLRLSCAASGFTFSSYGMHWVRQAPGKGLEWVAIMWYDGSDKDYADSVKGRFTISRDTSKNTLYLQMNSLRAEDTAVYYCAREQARSFDLWGRGTLVTVSS
VL: DIVMTQSPSSLSASVGDRVTITCRASQTINNWLAWYQQKPGKAPKLLIYKASSLESGVPSRFSGSGSGTEFTLTISSLQPDDFATYYCQQYQSYSPMYTFGQGTKVEIKR
notes: PR001354 variant: VL N92Q; hIgG1; also called anti-ROR1 1015M2-C9(L: N92Q) hIgG1
B2: PR002563 (antibody, human IgG1, kappa, V domains shown)
VH: B1 VH
VL: B1 VL with Q92N, S93A
notes: PR001354 variant: VL S93A; hIgG1; also called anti-ROR1 1015M2-C9(L: S93A) hIgG1
B3: PR002584 (antibody, human IgG1, kappa, V domains shown)
VH: B1 VH with Q6E, S31N, M34I, D54E, D57N, K58T, Y80F
VL: B1 VL with S10T, Q92N, S93A
notes: PR001369 variant: VH D54E, VL S93A; hIgG1; also called anti-ROR1 1015M3-H10(H: D54E; L: S93A) hIgG1
B4: PR002574 (antibody, human IgG1, kappa, V domains shown)
VH: B1 VH with Q1E, V5L, Q6E, Y32F, I50V, M51I, D54E
VL: B1 VL with S10T, Q92N
notes: PR001364 variant: VH D54E; hIgG1; also called anti-ROR1 1015M3-D8(H: D54E) hIgG1
B5: PR002575 (antibody, human IgG1, kappa, V domains shown)
VH: B1 VH with Q1E, V5L, Q6E, Y32F, I50V, M51I, D54E
VL: B1 VL with S10T
notes: PR001364 variant: VH D54E, VL N92Q; hIgG1; also called anti-ROR1 1015M3-D8(H: D54E; L: N92Q) hIgG1
B6: PR002572 (antibody, human IgG1, kappa, V domains shown)
VH: B1 VH with Q1E, V5L, Q6E, Y32F, I50V, M51I
VL: B1 VL with S10T
notes: PR001364 variant: VL N92Q; hIgG1; also called anti-ROR1 1015M3-D8(L: N92Q) hIgG1
B7: PR002578 (antibody, human IgG1, kappa, V domains shown)
VH: B1 VH with Q1E, V5L, Q6E, Y32F, I50V, M51I, G55A
VL: B1 VL with S10T
notes: PR001364 variant: VH G55A, VL N92Q; hIgG1; also called anti-ROR1 1015M3-D8(H: G55A; L: N92Q) hIgG1
B8: PR002582 (antibody, human IgG1, kappa, V domains shown)
VH: B1 VH with Q6E, S31N, M34I, D54E, D57N, K58T, Y80F
VL: B1 VL with S10T, Q92N
notes: PR001369 variant: VH D54E; hIgG1; also called anti-ROR1 1015M3-H10(H: D54E) hIgG1
B9: PR002566 (antibody, human IgG1, kappa, V domains shown)
VH: B1 VH with D54E
VL: B1 VL with Q92N, S93A
notes: PR001354 variant: VH D54E, VL S93A; hIgG1; also called anti-ROR1 1015M2-C9(H: D54E; L: S93A) hIgG1
B10: PR002586 (antibody, human IgG1, kappa, V domains shown)
VH: B1 VH with Q6E, S31N, M34I, G55A, D57N, K58T, Y80F
VL: B1 VL with S10T
notes: PR001369 variant: VH G55A, VL N92Q; hIgG1; also called anti-ROR1 1015M3-H10(H: G55A; L: N92Q) hIgG1
B11: PR002564 (antibody, human IgG1, kappa, V domains shown)
VH: B1 VH with D54E
VL: B1 VL with Q92N
notes: PR001354 variant: VH D54E; hIgG1; also called anti-ROR1 1015M2-C9(H: D54E) hIgG1
B12: PR002581 (antibody, human IgG1, kappa, V domains shown)
VH: B1 VH with Q6E, S31N, M34I, D57N, K58T, Y80F
VL: B1 VL with S10T, Q92N, S93A
notes: PR001369 variant: VL S93A; hIgG1; also called anti-ROR1 1015M3-H10(L: S93A) hIgG1
B13: PR002585 (antibody, human IgG1, kappa, V domains shown)
VH: B1 VH with Q6E, S31N, M34I, G55A, D57N, K58T, Y80F
VL: B1 VL with S10T, Q92N
notes: PR001369 variant: VH G55A; hIgG1; also called anti-ROR1 1015M3-H10(H: G55A) hIgG1
B14: PR002583 (antibody, human IgG1, kappa, V domains shown)
VH: B1 VH with Q6E, S31N, M34I, D54E, D57N, K58T, Y80F
VL: B1 VL with S10T
notes: PR001369 variant: VH D54E, VL N92Q; hIgG1; also called anti-ROR1 1015M3-H10(H: D54E; L: N92Q) hIgG1
B15: PR002576 (antibody, human IgG1, kappa, V domains shown)
VH: B1 VH with Q1E, V5L, Q6E, Y32F, I50V, M51I, D54E
VL: B1 VL with S10T, Q92N, S93A
notes: PR001364 variant: VH D54E, VL S93A; hIgG1; also called anti-ROR1 1015M3-D8(H: D54E; L: S93A) hIgG1
B16: PR002569 (antibody, human IgG1, kappa, V domains shown)
VH: B1 VH with G55A
VL: B1 VL with Q92N, S93A
notes: PR001354 variant: VH G55A, VL S93A; hIgG1; also called anti-ROR1 1015M2-C9(H: G55A; L: S93A) hIgG1
B17: PR002580 (antibody, human IgG1, kappa, V domains shown)
VH: B1 VH with Q6E, S31N, M34I, D57N, K58T, Y80F
VL: B1 VL with S10T
notes: PR001369 variant: VL N92Q; hIgG1; also called anti-ROR1 1015M3-H10(L: N92Q) hIgG1
B18: PR002568 (antibody, human IgG1, kappa, V domains shown)
VH: B1 VH with G55A
VL: B1 VL
notes: PR001354 variant: VH G55A, VL N92Q; hIgG1; also called anti-ROR1 1015M2-C9(H: G55A; L: N92Q) hIgG1
B19: PR002565 (antibody, human IgG1, kappa, V domains shown)
VH: B1 VH with D54E
VL: B1 VL
notes: PR001354 variant: VH D54E, VL N92Q; hIgG1; also called anti-ROR1 1015M2-C9(H: D54E; L: N92Q) hIgG1
B20: PR002571 (antibody, human IgG1, kappa, V domains shown)
VH: B1 VH with Q6E, I50V, M51A, G55A, S56V, D57S, K58E, T74N, S75A
VL: B1 VL with S10T, T28S, Q92K
notes: PR001356 variant: VH G55A; hIgG1; also called anti-ROR1 1015M2-E6(H: G55A) hIgG1
B21: PR002579 (antibody, human IgG1, kappa, V domains shown)
VH: B1 VH with Q1E, V5L, Q6E, Y32F, I50V, M51I, G55A
VL: B1 VL with S10T, Q92N, S93A
notes: PR001364 variant: VH G55A, VL S93A; hIgG1; also called anti-ROR1 1015M3-D8(H: G55A; L: S93A) hIgG1
B22: PR002570 (antibody, human IgG1, kappa, V domains shown)
VH: B1 VH with Q6E, I50V, M51A, D54E, S56V, D57S, K58E, T74N, S75A
VL: B1 VL with S10T, T28S, Q92K
notes: PR001356 variant: VH D54E; hIgG1; also called anti-ROR1 1015M2-E6(H: D54E) hIgG1
B23: PR002567 (antibody, human IgG1, kappa, V domains shown)
VH: B1 VH with G55A
VL: B1 VL with Q92N
notes: PR001354 variant: VH G55A; hIgG1; also called anti-ROR1 1015M2-C9(H: G55A) hIgG1
B24: PR002573 (antibody, human IgG1, kappa, V domains shown)
VH: B1 VH with Q1E, V5L, Q6E, Y32F, I50V, M51I
VL: B1 VL with S10T, Q92N, S93A
notes: PR001364 variant: VL S93A; hIgG1; also called anti-ROR1 1015M3-D8(L: S93A) hIgG1
B25: PR002577 (antibody, human IgG1, kappa, V domains shown)
VH: B1 VH with Q1E, V5L, Q6E, Y32F, I50V, M51I, G55A
VL: B1 VL with S10T, Q92N
notes: PR001364 variant: VH G55A; hIgG1; also called anti-ROR1 1015M3-D8(H: G55A) hIgG1

Target: T1, human ROR1 (hROR1) on cells (human, UniProt Q01973 30-937)
T1 construct: whole, on cells; the cell line is named under assay; also called HEK293T-hROR1; 293T-hROR1
Test: FACS, HEK293T-hROR1 cells; also: test concentration or dose not given here

T1 sequence (Q01973 30-937): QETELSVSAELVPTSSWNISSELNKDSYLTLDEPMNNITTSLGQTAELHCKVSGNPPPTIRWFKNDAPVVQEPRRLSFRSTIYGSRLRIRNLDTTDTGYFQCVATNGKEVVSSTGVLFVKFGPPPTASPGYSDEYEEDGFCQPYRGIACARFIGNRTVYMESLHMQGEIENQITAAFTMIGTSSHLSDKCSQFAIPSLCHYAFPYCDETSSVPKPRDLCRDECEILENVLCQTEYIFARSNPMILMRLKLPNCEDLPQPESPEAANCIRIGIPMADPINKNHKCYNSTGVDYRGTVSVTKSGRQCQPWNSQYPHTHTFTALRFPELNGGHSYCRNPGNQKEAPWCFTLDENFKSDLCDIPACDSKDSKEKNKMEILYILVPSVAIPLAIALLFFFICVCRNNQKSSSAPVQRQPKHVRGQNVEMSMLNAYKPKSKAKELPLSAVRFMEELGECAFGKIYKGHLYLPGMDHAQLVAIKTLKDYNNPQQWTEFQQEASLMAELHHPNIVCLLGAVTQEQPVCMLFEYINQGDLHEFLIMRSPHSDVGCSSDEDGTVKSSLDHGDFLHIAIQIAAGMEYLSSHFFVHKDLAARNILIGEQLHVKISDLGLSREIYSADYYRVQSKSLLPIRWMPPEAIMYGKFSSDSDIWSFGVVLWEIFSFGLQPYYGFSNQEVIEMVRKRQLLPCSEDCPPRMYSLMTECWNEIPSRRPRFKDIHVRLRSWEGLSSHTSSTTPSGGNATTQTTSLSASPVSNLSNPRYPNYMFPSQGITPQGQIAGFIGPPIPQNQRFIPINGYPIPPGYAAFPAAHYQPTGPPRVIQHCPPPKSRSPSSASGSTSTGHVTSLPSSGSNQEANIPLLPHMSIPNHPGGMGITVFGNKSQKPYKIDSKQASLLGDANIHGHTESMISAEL

MFI | Binder
43900 MFI | B1
43800 MFI | B2
36600 MFI | B3
45300 MFI | B4
33800 MFI | B5
43000 MFI | B6
45100 MFI | B7
32300 MFI | B8
43300 MFI | B9
41900 MFI | B10
43200 MFI | B11
42300 MFI | B12
32700 MFI | B13
25300 MFI | B14
40200 MFI | B15
34500 MFI | B16
42500 MFI | B17
46300 MFI | B18
46900 MFI | B19
49600 MFI | B20
43100 MFI | B21
43100 MFI | B22
41900 MFI | B23
37200 MFI | B24
44200 MFI | B25

Target: ROR1 (antigen of the KD determination and of the Octet dissociation measurement) (UniProt Q01973 30-403, limits assumed)
Test: Octet, antigen form not stated

Chain of ROR1 (antigen of the KD determination and of the Octet dissociation measurement) (Q01973 30-403 limits assumed): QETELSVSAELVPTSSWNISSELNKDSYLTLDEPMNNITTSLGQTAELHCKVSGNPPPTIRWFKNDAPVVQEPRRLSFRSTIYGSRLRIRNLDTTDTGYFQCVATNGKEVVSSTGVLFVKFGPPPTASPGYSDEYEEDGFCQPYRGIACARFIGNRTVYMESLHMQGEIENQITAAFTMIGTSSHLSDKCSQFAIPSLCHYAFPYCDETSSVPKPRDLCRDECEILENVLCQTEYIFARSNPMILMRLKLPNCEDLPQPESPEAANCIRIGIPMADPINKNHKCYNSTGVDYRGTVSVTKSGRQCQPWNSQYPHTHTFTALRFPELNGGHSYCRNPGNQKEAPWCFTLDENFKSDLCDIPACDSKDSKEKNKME

Response | koff | Binder
0.629 | 0.000162 s⁻¹ | B1
0.757 | 0.000122 s⁻¹ | B2
0.69 | 0.000301 s⁻¹ | B3
0.485 | 0.000172 s⁻¹ | B4
0.828 | 0.000112 s⁻¹ | B5
0.606 | 0.000104 s⁻¹ | B6
0.414 | 0.000322 s⁻¹ | B7
0.798 | 0.000193 s⁻¹ | B8
0.663 | 0.000135 s⁻¹ | B9
0.754 | 0.000266 s⁻¹ | B10
0.748 | 0.000108 s⁻¹ | B11
0.974 | 6.73e-05 s⁻¹ | B12
0.771 | 0.000389 s⁻¹ | B13
0.672 | 0.000223 s⁻¹ | B14
0.866 | 9.83e-05 s⁻¹ | B15
0.614 | 0.000207 s⁻¹ | B16
0.985 | 4.75e-05 s⁻¹ | B17
0.702 | 0.00014 s⁻¹ | B18
0.595 | 0.000106 s⁻¹ | B19
0.638 | 0.000113 s⁻¹ | B20
0.783 | 0.000199 s⁻¹ | B21
0.472 | 0.00108 s⁻¹ | B22
0.707 | 0.000215 s⁻¹ | B23
0.723 | 8.84e-05 s⁻¹ | B24
0.244 | 0.000601 s⁻¹ | B25

Target: T1, human ROR1 (hROR1) on cells
Test: FACS, Panc-1 cells; also: test concentration or dose not given here

MFI | Binder
5600 MFI | B1
5020 MFI | B2
3180 MFI | B3
5870 MFI | B4
3250 MFI | B5
3930 MFI | B6
6700 MFI | B7
1990 MFI | B8
4630 MFI | B9
5490 MFI | B10
6590 MFI | B11
3180 MFI | B12
2610 MFI | B13
3950 MFI | B14
2470 MFI | B15
3760 MFI | B16
3720 MFI | B17
3620 MFI | B18
6820 MFI | B19
4560 MFI | B20
7050 MFI | B21
3660 MFI | B22
7030 MFI | B23
3710 MFI | B24
6490 MFI | B25
